Target: unmodified H3 peptide (UniProt P59226)
Assay: ITC; FIG. 3A

SHH1 SAWADEE domain (residues 125-258), sequence (Q9XI47 125-258): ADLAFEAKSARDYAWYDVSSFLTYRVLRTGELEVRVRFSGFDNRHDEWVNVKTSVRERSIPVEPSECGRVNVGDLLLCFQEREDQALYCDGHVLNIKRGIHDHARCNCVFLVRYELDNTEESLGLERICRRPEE

Kd: 34.8 µM
Substance: SHH1 SAWADEE domain (residues 125-258) (from UniProt Q9XI47 125-258)

From patent US20160017348A1
